Laboratory results as given in US20250186614A1, “COMPACT DRUG RESPONSIVE DOMAINS FOR REGULATION OF FUNCTION/ABUNDANCE AND DELIVERY OF POLYPEPTIDE PAYLOADS” (OBSIDIAN THERAPEUTICS, INC., priority 2022, published 2025).

System: Jurkat cells
Test: Tacrolimus dose response of FKBP13-AcGFP-mCherry constructs stably transduced into Jurkat cells, GFP MFI by flow cytometry
Format: cell-based
Parameters: Basal: unit not given here
Outline: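 GFP geometric MFI was read by flow cytometry in mCherry+ cells and curve-fitted against tacrolimus dose. Cells were Jurkat E6-1, lentivirus-transduced with FKBP13-AcGFP-mCherry fusion constructs until 10-25% mCherry-positive on day 5 post-transduction.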

[1] = tacrolimus, Jurkat cells stably transduced, Table 6
[2] = tacrolimus, Jurkat cells, Table 13

B1: FKBP-146: FKBP13 DRD Q72R, Q84E, A117H, L104S, I136L; SEQ ID NO: 96 (protein)
chain: HCPIKSRKGDVLHMHYTGKLEDGTEFDSSLPRNQPFVFSLGTGEVIKGWDQGLLGMCEGEKRKSVIPSELGYGERGHPPKIPGGATLVFEVELLKLER
modifications: Description of sequence: FKBP13-AcGFP-mCherry Fusion; Construct Name: FKBP-146; FKBP13 DRD in Construct : FKBP13 (mutated to match FKBP12 active site Q72R Q84E A117H) (DRD L104S I136L)
Question: With B1 as the molecule, how does the “Fold Change” value [1] read?
Answer: 1.19

B2: FKBP-147: FKBP13 DRD Q72R, Q84E, A117H, T64R, S108G, E137F; SEQ ID NO: 97 (protein)
chain: HCPIKSRKGDVLHMHYTGKLEDGREFDSSLPRNQPFVFSLGTGEVIKGWDQGLLGMCEGEKRKLVIPGELGYGERGHPPKIPGGATLVFEVELLKIFR
modifications: Description of sequence: FKBP13-AcGFP-mCherry Fusion; Construct Name: FKBP-147; FKBP13 DRD in Construct : FKBP13 (mutated to match FKBP12 active site Q72R Q84E A117H) (DRD T64R S108G E137F)
Question: B2 was tested. Which “Fold Change” value [1] did it give?
Answer: 26.65

B3: FKBP-148: FKBP13 DRD Q72R, Q84E, A117H, D62N, D67N, D90N, M96G, E130K; SEQ ID NO: 98 (protein)
chain: HCPIKSRKGDVLHMHYTGKLENGTEFNSSLPRNQPFVFSLGTGEVIKGWNQGLLGGCEGEKRKLVIPSELGYGERGHPPKIPGGATLVFKVELLKIER
modifications: Description of sequence: FKBP13-AcGFP-mCherry Fusion; Construct Name: FKBP-148; FKBP13 DRD in Construct : FKBP13 (mutated to match FKBP12 active site Q72R Q84E A117H) (DRD D62N D67N D90N M96G E130K)
Question: With B3 as the molecule, how does the “Fold Change” value [1] read?
Answer: 1.09

B4: FKBP-149: FKBP13 DRD Q72R, Q84E, A117H, T64Q, L94G; SEQ ID NO: 99 (protein)
chain: HCPIKSRKGDVLHMHYTGKLEDGQEFDSSLPRNQPFVFSLGTGEVIKGWDQGLGGMCEGEKRKLVIPSELGYGERGHPPKIPGGATLVFEVELLKIER
modifications: Description of sequence: FKBP13-AcGFP-mCherry Fusion; Construct Name: FKBP-149; FKBP13 DRD in Construct : FKBP13 (mutated to match FKBP12 active site Q72R Q84E A117H) (DRD T64Q L94G)
Question: How did the “Fold Change” value [1] turn out when B4 was run?
Answer: 39.28

B5: FKBP-150: FKBP13 DRD Q72R, Q84E, A117H, E61G, G124P; SEQ ID NO: 100 (protein)
chain: HCPIKSRKGDVLHMHYTGKLGDGTEFDSSLPRNQPFVFSLGTGEVIKGWDQGLLGMCEGEKRKLVIPSELGYGERGHPPKIPGPATLVFEVELLKIER
modifications: Description of sequence: FKBP13-AcGFP-mCherry Fusion; Construct Name: FKBP-150; FKBP13 DRD in Construct : FKBP13 (mutated to match FKBP12 active site Q72R Q84E A117H) (DRD E61G G124P)
Question: B5 was tested. Which “Fold Change” value [1] did it give?
Answer: 21.15

B6: FKBP-118: FKBP13 DRD Q72R, Q84E, A117H, V85R; SEQ ID NO: 68 (protein)
chain: HCPIKSRKGDVLHMHYTGKLEDGTEFDSSLPRNQPFVFSLGTGERIKGWDQGLLGMCEGEKRKLVIPSELGYGERGHPPKIPGGATLVFEVELLKIER
modifications: Description of sequence: FKBP13-AcGFP-mCherry Fusion; Construct Name: FKBP-118; FKBP13 DRD in Construct : FKBP13 (mutated to match FKBP12 active site Q72R Q84E A117H) (DRD V85R)
Question: Which “Fold Change” value [1] does the source give for B6 here?
Answer: 12.95

B7: FKBP-119: FKBP13 DRD Q72R, Q84E, A117W, K101W; SEQ ID NO: 69 (protein)
chain: HCPIKSRKGDVLHMHYTGKLEDGTEFDSSLPRNQPFVFSLGTGEVIKGWDQGLLGMCEGEWRKLVIPSELGYGERGWPPKIPGGATLVFEVELLKIER
modifications: Description of sequence: FKBP13-AcGFP-mCherry Fusion; Construct Name: FKBP-119; FKBP13 DRD in Construct : FKBP13 (mutated to match FKBP12 active site Q72R Q84E A117W) (DRD K101W )
Question: With B7 as the molecule, how does the “Fold Change” value [1] read?
Answer: 31.91

B8: FKBP-120: FKBP13 DRD Q72R, Q84E, A117H, K101W; SEQ ID NO: 70 (protein)
chain: HCPIKSRKGDVLHMHYTGKLEDGTEFDSSLPRNQPFVFSLGTGEVIKGWDQGLLGMCEGEWRKLVIPSELGYGERGHPPKIPGGATLVFEVELLKIER
modifications: Description of sequence: FKBP13-AcGFP-mCherry Fusion; Construct Name: FKBP-120; FKBP13 DRD in Construct : FKBP13 (mutated to match FKBP12 active site Q72R Q84E A117H) (DRD K101W)
Question: Which “Fold Change” value [1] does the source give for B8 here?
Answer: 30.53

B9: FKBP-260: FKBP13 DRD-AcGFP construct of Table 10 (protein)
chain: HCPIKSRKGDVLHMHYTGKLEDGTEFDSSLPRNQPFVFSLGTGERIKGWDQGLLGMCEGENRKLVIPSELGYGERGWPPKIPGGATLVFEVELLKIER
modifications: Description of sequence: Construct Name: FKBP-260; Mutation(s): Q72R Q84E A117W V85R DRD K101N
Question: With B9 as the molecule, how does the FC (tacrolimus, FIGS. 31 and 32) read?
Answer: 51

Question: And the “Fold Change” value [2]?
Answer: 51

B10: FKBP-262: FKBP13 DRD-AcGFP construct of Table 10 (protein)
chain: HCRIKSRKGDVLHMHYTGKLEDGTEFDSSLPRNQPFVFSLGTGERIKGWDQGLLGMCEGEKRKLVIPSELGYGERGWPPKIPGGATLVFEVELLYIER
modifications: Description of sequence: Construct Name: FKBP-262; Mutation(s): Q72R Q84E A117W V85R DRD P43R K135Y
Question: How did the Basal (FIG. 49, BR1 (Biorep 1)) turn out when B10 was run?
Answer: 59.5

Question: And the FC (FIG. 49, BR1 (Biorep 1))?
Answer: 66.64

Question: And the “At 10 uM” value (FIG. 49, BR1 (Biorep 1))?
Answer: 3965

Question: And the Basal (FIG. 49, BR2 (Biorep 2))?
Answer: 73.7

Question: What about the FC (FIG. 49, BR2 (Biorep 2)) of the same molecule?
Answer: 52.21

Question: What about the “At 10 uM” value (FIG. 49, BR2 (Biorep 2)) of the same molecule?
Answer: 3848

Question: And the FC (tacrolimus, FIGS. 31 and 32)?
Answer: 73

Question: What about the “Fold Change” value [2] of the same molecule?
Answer: 73

B11: FKBP-264: FKBP13 DRD-AcGFP construct of Table 10 (protein)
chain: HCPIKSRKGDVLHMHYTGKLEDGTEFDSSLPRNQPFVFWLGTGRRIKGWDQGLLGMCEGEKRKLVIPSELGYGERGWPPKIPGGATLVFEVELLKIER
modifications: Description of sequence: Construct Name: FKBP-264; Mutation(s): Q72R S79W Q84R A117W DRD V85R
Question: Which results are given for B11?
Answer: Basal (FIG. 45, BR1 (Biorep 1)): 127; FC (FIG. 45, BR1 (Biorep 1)): 37.06; At 10 uM (FIG. 45, BR1 (Biorep 1)): 4706; Fold Change [2]: 37.08

B12: FKBP-265: FKBP13 DRD-AcGFP construct of Table 10 (protein)
chain: HCPIKSRKGDVLHMHYTGKLEDGTEFDSSLPRNQPFVFSLGWGRRIKGWDQGLLGMCEGEKRKLVIPSELGYGERGWPPKIPGGATLVFEVELLKIER
modifications: Description of sequence: Construct Name: FKBP-265; Mutation(s): Q72R T82W Q84R A117W DRD V85R
Question: For B12, which Basal (FIG. 45, BR1 (Biorep 1)) is on record?
Answer: 78

Question: What about the FC (FIG. 45, BR1 (Biorep 1)) of the same molecule?
Answer: 53.72

Question: What about the “At 10 uM” value (FIG. 45, BR1 (Biorep 1)) of the same molecule?
Answer: 4190

Question: And the Basal (FIG. 45, BR2 (Biorep 2))?
Answer: 102

Question: What about the FC (FIG. 45, BR2 (Biorep 2)) of the same molecule?
Answer: 41.58

Question: And the “At 10 uM” value (FIG. 45, BR2 (Biorep 2))?
Answer: 4241

Question: What about the FC (tacrolimus, FIGS. 31 and 32) of the same molecule?
Answer: 58

Question: And the “Fold Change” value [2]?
Answer: 53.72

B13: FKBP-266 (protein)
chain: HCPIKSRKGLVLHMHYTGKLEDGTEFDSSLPRNQPFVFSLGTGERIKGWDQGLLGMCEGEKRKLVIPSELGYGERGWPPKIPGGATLVFEVELLKIER
modifications: Description of sequence: Construct Name: FKBP-266; Mutation(s): Q72R Q84E A117W V85R DRD D50L
Question: With B13 as the molecule, how does the “Fold Change” value [2] read?
Answer: 60

B14: FKBP-267 (protein)
chain: HCPIKSRKGDVLHMHYTGKLEDGTEFDSSLPRNQPFVFSLGTGERIKGWDQGLLGWCEGEKRKLVIPSELGYGERGWPPKIPGGATLVFEVELLKIER
modifications: Description of sequence: Construct Name: FKBP-267; Mutation(s): Q72R Q84E A117W V85R DRD M96W
Question: How did the “Fold Change” value [2] turn out when B14 was run?
Answer: 67

B15: FKBP-268: FKBP13 DRD-AcGFP construct of Table 10 (protein)
chain: HRPIKSRKGDVLHMHYTGKLEDGTEFDSSLPRNQPFVFSLGTGERIKGWDQGLLGMCEGEKRKLVIPSELGYGERGWPPKIPGGATLVFEVELLKIER
modifications: Description of sequence: Construct Name: FKBP-268; Mutation(s): Q72R Q84E A117W V85R DRD C42R
Question: How did the FC (tacrolimus, FIGS. 31 and 32) turn out when B15 was run?
Answer: 18

Question: What about the “Fold Change” value [2] of the same molecule?
Answer: 18

B16: FKBP-269 (protein)
chain: HCPIKSRKGDVLQMHYTGKLEDGTEFDSSLPRNQPFVFSLGTGERIKGWDQGLLGMCEGEKRKLVIPSELGYGERGWPPKIPGGATLVFEVELLKIER
modifications: Description of sequence: Construct Name: FKBP-269; Mutation(s): Q72R Q84E A117W V85R DRD H53Q
Question: For B16, which “Fold Change” value [2] is on record?
Answer: 44
